Data: the DeepSol protein solubility set

Assay: soluble on expression in E. coli; label from the status in PepcDB or PDB records

| Sequence | soluble on expression in E. coli |
| --- | --- |
| MGLTAGIVGLPNVGKSTLFNAITQAGAESANYPFCTIDPNVGIVEVPDERLNKLTELVEPKKTVPTVFEFTDIAGIVKGASKGEGLGNKFLSHIRQVDAICQVVRCFEDENITHVSGKVDPIDDIETINLELILADLESVDKRIERVAKLARQKDKEAVYEHEILVRLKEAFEEGKPARTVEFTEEQMKIVKGLHLLTTKEMLYVANVSEDDVIDPSENKYVQMVKEFAANENSQVIVVCAKIESEIAELDEEEKKVFLEELGIEESGLDQLIRAAYDLLGLATYFTAGVQEVRAWTFKQGMKAPQCAGVIHTDFERGFIRAETVSYEDLMTNGSMTAAKEAGKVRLEGKEYIVKDGDVMHFRFNV | soluble |
| MGSDKIHHHHHHMSYSLQKSMVAKVVGLSLVMLLAACSSDQRYKRQVSGDESYLKAPAQHVLNTPAGMILPVQNGDFDIPPVTLNGAVGKELDIRPPVQPLALLNGSRTQTSGDTATLLLENSAQNSQIWSQVIRVLQDNAFTIANRQDASQTLTTDWISWPREDENVPYQGRYQISVQQQGYQVALIVKLLGLQLNGQPVTTSDQTQRYAGLMLNVLSNGLDSQATARENALANRTIGSLDVQSGADDTGLPLLIVRGPYTVVWDRLPVALDKIGMKVNDRSRPQGSVSVTYRAPSGGTWDDLGAKNPELPNGDYKLQVGDLDNRSSLQFIDSKGHTLTQSQNDALVAVFQAAFSK | not soluble |
| MPSPARRSRRRRSSLLNFSFSEVDLEQQRRALEMFEQQMNDQAFAQLIHDHDVQHINNDANQVPAAPNTPPVPVPPPVQQPQASPNASPVSVLRRRRYANPEQERFGDISRRIHNPANQIPAAPNTQPEVPPTVQQPESSSQERASPTSPEITIFSTGLLGLRRRSSARISIRMSATAQTNLPITPIRRRRGRAVSPILEIEFENLSSSSSGTSGDSGNHSSPTNTNDQSFIGDDARTYDQEHVPIDFEGPSTSTGITDRHPRRRNQDGSHGECTMCFEVPVSPLGCNNCLQIIGCEECVDIWYRSSSKPSCPLCRRKWARKPDVSKMSVISVRKQSSLRRSKRRITSK | not soluble |
| MGSDKIHHHHHHMAKKAKVQFECQSCGYVSPKYLGRCPNCGQWNSMVEEVIQDTSDRRARVSLTGKKTQPQRLSEVIPKKEPRVKTELVELNRVLGGGVVPGSLVLIGGDPGIGKSTLLLQVSQQLAATGGTVLYVSGEESAEQIKLRAERLGTVNETFYLYAETDMHEISRAIEKLEPDYVIIDSIQTMTQPDVTSVAGSVSQVRETTAELLKLAKTNGIAIFIVGHVTKEGSIAGPRMLEHMVDTVLYFEGDKHHTFRILRAVKNRFGSTNEIGIFEMQTHGLVEVMNPSQVFLEERLEGATGSSIVVAMEGSRPILVEIQALVTPTMFGNAKRTTTGLDFNRVSLIMAVLEKRAGLLLQNQDAYLKAAGGVKINEPAIDLALAISIASSYKEKGTSSSECFIGEIGLTGEIRRVNSIEQRVREAQKLGFTKVYVPKNNLGGWEAPEGIEIIGVSTIGETLRKVFK | not soluble |
| GSHMSYADSSRNAVLTNGGRTLRAECRNADGNWVTSELDLDTIIGNNDGHFQWGGQNFTETAEDIRFHPKEGAAEQPILRARLRDCNGEFHDRDVNLNRIQNVNGRLVFQ | soluble |
| MRLMKSYKNLKEEVWDTNRCSGCGACVAVCPVNNLYFREESPVKFECDECSCIIVPADIVEHPISAEFCKTVVYDVPCGACYDACPRIKKSAIPKPKGLGNILKAVRAKASIEIKNAQNGGVVTAILANAFDEGLIDGAIVMMDDKWTLEPESYLALSKEDVLKSAGSKYLWKGPILKALKTAVMEKKLKKLAVVGTPCVINAIYQILSSDNDLLKPFREAIRLKIALFCFETYDYSKMIKKLNEDGIEPWEVKKMDIESGKLKITLINGNTVEYKLKDVESAMRNGCKVCGDFTGLTSDISVGNVGTEKGYSTVLIRNKWGEGFFKRAVYNGYITYDENVDLEAVEKLVELKKKRVKKDLEHHHHHH | soluble |
| MAFDKKLLDIVACPVCKGKLEYDKVAQQLICKADKLAYPITDGIPVLLENRALPLTESV | not soluble |
| MSEKEIWDKVLEIAQERISNTSYQTFIKDTQLYSLKNDEAIILVSLPFNASWLNQRYSEIMQAIIYDVIGYEVKPHFISEDELASYNNVNTQEVQEPQVQHSSIDDKTWGKEQFNMHNTFDTFVIGPGNRFPHAASLAVAEAPAEAYNPLFIYGGVGLGKTHLMHAIGHHVLSNKPNAKVIYTSSEKFTNEFIKSIRDNETEAFREKYRKIDVLLIDDIQFIQNKEQTQEEFFHTFNELHQNNKQIVISSDRPPKEIAKLEDRLRSRFEWGLIVDITPPDYETRMAILQKKIEEENLDIPPEALNYIANQIQSNIRELEGALTRLLAYSKLQGKPITTELTAEALKDIIQSPKSKKITIQDIQKVVGQYYSVRIEDFSAKKRTKSIAYPRQIAMYLSRELTDFSLPKIGEEFGGRDHTTVIHAHEKIANDIKSDPTFKQEVENLEKEIRNQLEHHHHHH | not soluble |
| MRMTINRYNFQALWNRMCMILTSKGGELKFGEIIPDTKRSEMKIGKTLYIVNSRYNGKENIIDKFKRLITRKLESQSKGN | not soluble |
| MTCWLRGVTATFGRPAEWPGYLSHLCGRSAAMDLGPMRKSYRGDREAFEETHLTSLDPVKQFAAWFEEAVQCPDIGEANAMCLATCTRDGKPSARMLLLKGFGKDGFRFFTNFESRKGKELDSNPFASLVFYWEPLNRQVRVEGPVKKLPEEEAECYFHSRPKSSQIGAVVSHQSSVIPDREYLRKKNEELEQLYQDQEVPKPKSWGGYVLYPQVMEFWQGQTNRLHDRIVFRRGLPTGDSPLGPMTHRGEEDWLYERLAP | soluble |
| MGSDKIHHHHHHMITDPQIKACIHQHHLFSALGEEELCRLLGQAAKITLAAHENLFYQGDLAKRFYLVIQGHLQLYRTSLQGQDKVIEVVREGRTFAEALMFSRQASYPVSAQAVSHCTLVSFDSEGYLAMLRGNPDACIAIMAEMSVRLRKDINEVELLSVQNAQSRLLLFLLRNMQKIGDNQGRVELDIPKRVLASRLSIQPETFSRLMKKMVTEGIIGESRGAIDIKDLAKLYTSANMPLANQAIQTSEPLIRSGKAPCQQIAIEMV | not soluble |
| MGSDKIHHHHHHMTATTATAPTMRGGGRNELPPHLDDNLLTPRFYTTEFDKAAKTDLDIARKDFEAMFKEMEADYNLKHFDRKASLERLSELSPEDKAIYESYLVRSVVSEFSGFLLFKEISNRFKKAGRQELGQFFTFLARDEARHAGFLGRALKAEGINVDLPNLGNKRAATFFPLSWVLYSLYLSEKIGYWRYILINRHLNDNPEKVCAPLFDFFEPWCQDENRHGDCINLMMRCWPGMTKGFRGKLLSRFFLWSVFLTHTLTVCERGDFYGLLGIDPVLFDEEVIIQTNNTSRNAFPWVYNFDDGKFLEMRVQILKAFRNWRESSGLAKPVALSKFVSLILRQFALPMQKTNAVRYG | not soluble |
| MGSDKIHHHHHHMRKKSLTLLSDGYLFRKENTIYFENARGKKPLAIEGIYDIYIYGKVSISSQALHYLAQKGIALHFFNHYGYYDGSFYPRESLHSGYLVVNQVEHYLDKDKRLELAKLFIIGGIKNMEWNLLKFKNKTKFSSYIEELNNCNKITEVMNVEGRVRTEYYRLWDETLPDDFKIVKRTRRPPKNEMNALISFLNSRLYPAIITELYNTQLTPTVSYLHEPHERRFSLALDLSEIFKPMIADRLANRLVKQGIIQKKHFRDDLNGVLLNKEGMKVVLEHFNKEMDKTVNHKKLKKNVSKRRLIRLEAYKLVKHLVGQKRYEPLVAWF | not soluble |
| MIYFIRKKKWLKQLEKGEAMKYAILIGDGMADYPIEKLGNRTILQAARTPAMDSIAARGRAGLAKTVPDSFPPGSDVANMSILGYDPATYYSGRAPLEAASMGVALAADDVAFRCNLITTEHGMIKDYSAGHISSDEAEILIDTLDYELSTENIRFYPGISYRHLIVAGNNLGAETECTPPHDITGEKIDKYLPRGKDGEFFSELIEASKVVLELHPVNLKRVEEGKNPANSIWVWGQGYAPKFTAFMKLYGKKGAVISAVDLLKGIGIYAGLDVIEVHGATGYLDTNYEGKVRAAIEALKTRDLVFVHVEAPDEAGHEGSIEKKLKAVEDFDSRIVAPILEYAENSDEPFTILVLPDHPTPISVKTHTRDPIPFAIYRTDKPETDNVEAFDEESVKNGSMGLVKASDLIGILIKS | not soluble |
